According to patent US5976859:

protease Q (enzyme) was tested. Which percent of β-casein hydrolyzed, band intensity on SDS-PAGE (β-casein) did it give?
The percent of β-casein hydrolyzed, band intensity on SDS-PAGE was 87 % hydrolyzed.

And the proteolytic activity (U/mg), casein as substrate (casein)?
Its proteolytic activity (U/mg), casein as substrate is 4290 U/mg.

What about the hydrolysis of Azocoll, absorbance at 520 nm (% of original activity) (Azocoll) of the same substance?
Its hydrolysis of Azocoll, absorbance at 520 nm (% of original activity) is 47.
